Data reported in patent US20240402190A1.

Molecular target: SERCA1a, mouse (endogenous, mouse myotubes) (mouse) (UniProt Q8R429)
Experiment: cell-based or functional assay

UniProt Q8R429, sequence (Q8R429 whole entry): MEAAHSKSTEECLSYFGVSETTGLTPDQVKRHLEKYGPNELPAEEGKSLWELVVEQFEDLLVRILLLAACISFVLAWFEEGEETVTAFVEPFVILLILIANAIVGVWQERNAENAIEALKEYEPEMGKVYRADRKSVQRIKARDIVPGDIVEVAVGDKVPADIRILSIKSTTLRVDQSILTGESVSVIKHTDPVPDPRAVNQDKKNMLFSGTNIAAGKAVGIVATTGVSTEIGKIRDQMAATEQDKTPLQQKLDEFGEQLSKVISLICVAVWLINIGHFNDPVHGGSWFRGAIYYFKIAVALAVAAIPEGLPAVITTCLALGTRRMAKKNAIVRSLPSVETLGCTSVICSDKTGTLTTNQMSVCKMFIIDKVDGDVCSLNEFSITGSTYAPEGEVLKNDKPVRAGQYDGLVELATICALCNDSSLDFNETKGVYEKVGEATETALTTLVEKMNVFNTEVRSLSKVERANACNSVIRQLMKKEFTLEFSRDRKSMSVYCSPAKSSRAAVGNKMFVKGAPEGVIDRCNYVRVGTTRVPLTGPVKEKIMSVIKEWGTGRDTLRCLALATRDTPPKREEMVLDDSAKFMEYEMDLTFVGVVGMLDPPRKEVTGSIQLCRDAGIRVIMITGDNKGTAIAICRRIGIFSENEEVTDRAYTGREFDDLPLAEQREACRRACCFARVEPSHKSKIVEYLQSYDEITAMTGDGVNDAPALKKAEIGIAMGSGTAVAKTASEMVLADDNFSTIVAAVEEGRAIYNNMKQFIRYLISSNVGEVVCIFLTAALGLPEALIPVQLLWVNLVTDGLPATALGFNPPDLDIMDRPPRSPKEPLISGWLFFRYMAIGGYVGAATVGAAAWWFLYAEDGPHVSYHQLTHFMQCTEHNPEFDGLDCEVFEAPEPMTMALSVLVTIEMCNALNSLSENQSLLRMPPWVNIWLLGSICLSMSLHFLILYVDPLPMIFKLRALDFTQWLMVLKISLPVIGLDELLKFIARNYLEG

Substance	Caffeine response (normalized ratio to vector control)	KCl response (normalized ratio to vector control)	Releasable Ca^2+ level from SR (normalized ratio to vector control)
wild-type TRIM32 expressed in mouse myotubes (from UniProt Q13049 1-653)	1.22	1.27	1.48
NHL-Del (TRIM32 lacking the NHL repeat) expressed in mouse myotubes (from UniProt Q13049 1-357)	0.97	0.94	0.99
